Two molecules from US20160130333A1 (published 2016) can be followed below.

As a reminder, the Kd is the equilibrium constant for the complex coming apart. A high value points to a looser complex.

The target of this test is histones. Kind of test: ELISA. On the technique in general: ELISA stands for enzyme-linked immunosorbent assay.

B1: mIMMU-H4 (antibody, V domains shown)
VH: QVQLQQSGAELVRPGASVKLSCTASGFNIKDDYLHWVKQRPEQGLEWIGWIDPENGDTEYASKFQGKATITADTSSNTAYLQLSSLTSEDTAVYYCSSPLVHLRTFAYWGQGTLVTVS
VL: DIQLTQSPASLAVSLGQRATISCRASESVDSYDNSLHWFQQKPGQPPKLLIYLASNLESGVPARFSGSGSRTDFTLTIDPVEADDAATYYCQQNNEDPWTFGGGTKLEIKR
The molecule B1 yielded a Kd of 6.6 nM. This lies in the single-digit nanomolar range.

B2: cIMMU-H4 (antibody, V domains shown)
VH: QVQLQQSGAELVRPGASVKLSCTASGFNIKDDYLHWVKQRPEQGLEWIGWIDPENGDTEYASKFQGKATITADTSSNTAYLQLSSLTSEDTAVYYCSSPLVHLRTFAYWGQGTLVTVSA
VL: DIQLTQSPASLAVSLGQRATISCRASESVDSYDNSLHWFQQKPGQPPKLLIYLASNLESGVPARFSGSGSRTDFTLTIDPVEADDAATYYCQQNNEDPWTFGGGTKLEIKR
Consider B2, for which binding was characterised by a dissociation constant (Kd) of 0.96 nM.
